Target: T1, FLAG-G3BP1 Q392*, bacterially expressed (UniProt Q13283 1-391, Q392*)
T1 construct: The bacterial expression construct is not described in the methods; source: bacterially expressed
Experiment: pull-down; GST fusion protein fixed on glutathione-Sepharose beads, incubated with recombinant FLAG-labeled proteins for 2 h, washed 5 times, Western blot with anti-FLAG
Conditions: both partners purified

T1 sequence (Q13283 1-391, stated change not applied): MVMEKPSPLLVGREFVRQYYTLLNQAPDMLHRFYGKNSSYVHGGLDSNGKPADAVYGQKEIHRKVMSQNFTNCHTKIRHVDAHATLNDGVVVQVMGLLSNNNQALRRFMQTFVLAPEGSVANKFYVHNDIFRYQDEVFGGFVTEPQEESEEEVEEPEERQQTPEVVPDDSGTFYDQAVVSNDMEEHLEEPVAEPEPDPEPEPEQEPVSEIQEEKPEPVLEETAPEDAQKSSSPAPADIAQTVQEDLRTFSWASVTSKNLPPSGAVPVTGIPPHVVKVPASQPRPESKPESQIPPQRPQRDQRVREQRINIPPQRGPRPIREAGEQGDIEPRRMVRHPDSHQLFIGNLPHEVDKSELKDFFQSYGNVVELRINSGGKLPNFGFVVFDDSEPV

B1: GST-SPOP, bacterially expressed (natural protein, UniProt O43791 1-374, looked up)
chain: MSRVPSPPPPAEMSSGPVAESWCYTQIKVVKFSYMWTINNFSFCREEMGEVIKSSTFSSGANDKLKWCLRVNPKGLDEESKDYLSLYLLLVSCPKSEVRAKFKFSILNAKGEETKAMESQRAYRFVQGKDWGFKKFIRRDFLLDEANGLLPDDKLTLFCEVSVVQDSVNISGQNTMNMVKVPECRLADELGGLWENSRFTDCCLCVAGQEFQAHKAILAARSPVFSAMFEHEMEESKKNRVEINDVEPEVFKEMMCFIYTGKAPNLDKMADDLLAAADKYALERLKVMCEDALCSNLSVENAAEILILADLHSADQLKTQAVDFINYHASDVLETSGWKSMVVSHPHLVAEAYRSLASAQCPFLGPPRKRLKQS
notes: SPOP as a GST fusion protein; The bacterial expression construct is not described in the methods
Q: Does B1 bind?
A: Result: binds

Reference: paper PMC10614411, “Endometrial cancer (EC) derived G3BP1 overexpression and mutant promote EC tumorigenesis and metastasis via SPOP/ERα axis” (Cell Communication and Signaling : CCS, 2023)
